From patent publication US11702465 (TRIAD NATIONAL SECURITY, dated 2023)

Molecular target: T1, Yersinia pestis F1 antigen, cell-expressed (on Y. pestis cells) (Yersinia pestis, UniProt P26948 22-170)
T1 construct: whole, on cells; also called cell-expressed F1 antigen; F1-positive Y. pestis
Experiment: affinity for cell-expressed F1 antigen (method not given)

T1 sequence (P26948 22-170): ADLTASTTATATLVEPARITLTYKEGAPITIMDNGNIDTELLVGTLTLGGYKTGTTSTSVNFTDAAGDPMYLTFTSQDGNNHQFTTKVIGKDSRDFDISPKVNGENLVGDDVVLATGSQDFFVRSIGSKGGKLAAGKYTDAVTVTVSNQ

| Binder | Kd |
| --- | --- |
| AM IgG B (antibody, V domains shown, also called AM^a IgG B) VH: QVQLVESGGGLVKPGGSLRLSCAASGFTFSDYYMSWIRQAPGKGLEWVSYISGSGSIIYYADSVKGRFTISRDNAKNSLYLQMNSLRAEDTAVYYCAKEIRKHDAFDIWGQGTMVTVSS VL: DIRMTQSPSSLSASVGDRVTITCRASRSISGYLNWYQQKPGKAPKLLIYATSSLQSGVPSRFSGSGSGTDFTLTISSLQPEDFATYYCQQSYSTPSSFGQGTKVDIKR | 0.09 nM |
| AM IgG H (antibody, V domains shown, also called AM^a IgG H) VH: QVQLQQWGAGLLKPSETLSLTCAVYGGSFSGYYWSWIRQPPGKGLEWIGEINRSGNTNYNPSLKSRVTISVDTSKNQFSLQLNSVTPEDTAVYYCARTRGYFDLWGRGTLVTVSS VL: QPVLTQSPSVSVSPGQTASITCSGDKLGGRYASWYQQKPGQSPVLVIYQDTKRPSGIPERFSGSNSGNTATLTISGTQAMDEADYYCQSWDSSAAVFGTGTKLTVLG | 0.03 nM |
